Test: soluble on expression in E. coli; label from the status in PepcDB or PDB records

Sequence	soluble on expression in E. coli
MQPKVTVAQAAELMGVSDRTIRKKIEEGEITAEPAQSAKGKGRPGYLIPVSSLPVDAQRKYWTTSEVAAASEIGEAEPDKPETTGIPYTLAELEHAVGKEKFQEMMAEAEYRLQIVEQAMNPPQGVERTIWINRLAKKYGKSTATIYRDIEKFQEWGILGLMRKSRLLTQGPQRTSIEPEVERFIRAKYLDRRKPKPAHIFRETVRFCATNGYKAPSRASVFRYISDMERYEPDLCCLAREGEEAYWKKFAEKATRKEPEFVNQVWMGDHHKLDMFISYKGKPVRPWLTVWFDVCSRVVVGWCLSVQANGRTIALALRHALLPKKIKRDDGTEDVLEIGGIPGMIYIDNGEDYKAQVRAGKKHEDWELSRETRGICASLDIKVQFATPYHPWAKAHVERFFGTFTDQFTRYQPGWCGPNNEDRPEGFDEKELHEKGLLLDLEELSERIDTWLYEYHTTEHRSLGMTPMQKHFSTPKIREGFADERALDICLMDVERAAVTPNGIERFGTRGRKRWYWHPELPAYAGQKVIIRYDPNRIGELLVFHPKTGKYLFTATNKELLDFNATKDDIQELQKRRASRRKAVKEMVRNAQQASLENIVAEREAAGSRMTSGKAGSTKGKVRAMIGTEQVVRQREEQANLAKTKRPTKTTSAFDDYILREGTEG	not soluble
MKKVLILSTSTGYGHNQAANSLMELIKNDDTEILVHDFLKENRFFDRSIVNGYDLCASSLGTLYGLLYKISNIKFINNLVSFLFLPVANKLAKFIHSFNPDLIITTHPLAVSILSYLKKRQIIKVPVISVVTDFKCHYTYVSKIIDHYIVACDFTKENLASKGIPKERISPFGIPVKQDFYKEDYHNYVENIIQSPLNILLMGGGMGLDNISKVLKTLIKNENPLNLTIVCGNNAELKEDLCKEYGHIKGNKKLNILGYTTEIPKIMKSSDLIITKPGGLTTTESLLSHLPMIIPFIIPGQESENREFLSKSNCAITINHLEELNKVINDLNKDNNKLINMRKSILDVLSSYSPEGTIKLCTKMLNDSYNKRRYLEHHHHHH	soluble
MSLTVNISYLTDMDGVLIKEGEIIPGADRFLQSLTDNNVEFMVLTNNSIFTPRDLSARLKTSGLEIPPERIWTSATATAHFLKSQVKEGTAYVVGESGLTTALHTAGWILTDANPEFVVLGETRTYSFEAITTAINLILGGARFICTNPDVTGPSPSGILPATGSVAALITAATGAEPYYIGKPNPVMMRSALNTIGAHSEHTVMIGDRMDTDVKSGLEAGLSTVLVRSGISDDAEIRRYPFRPTHVINSIADLADEGHHHHHH	soluble
MSFIDPYQHIIVEHQYSHKFTVVVLRATKVTKGAFGDMLDTPDPYVELFISTTPDSRKRTRHFNNDINPVWNETFEFILDPNQENVLEITLMDANYVMDETLGTATFTVSSMKVGEKKEVPFIFNQVTEMVLEMSLEV	soluble
MKRVLIVGATGTIGGVVRQTLLNETDNQLTLFARSANRLKTSERESVIAGDVTKDSDLDKAIAGQDVVFVALSGSLGRFAQKIVAAMDRNKVSRLLFITSMGIYDEIPASVGASGNLSSNPMLRTYREAADVVEASDLNYTLIRPGWFTGGPVDYEITKKGEPFGGHDVSINSIADFVKNAIVDNDYYAHDSVGLNAK	not soluble
MGSDKIHHHHHHMSGRTMSSIYILWDASHIWGLLAWRTAQSLDLPYRLVRGEEIAQGLLSGKPPALLLVPGGNARMKSVALGAAGMQAIRDYVRGGGAYVGFCGGAGLGLSGSEGLGLCPWGRARFTDRMQHFVSGHVHARVARGHDLVPADLCTDACAEPPVPIWWPGRFAPEKTGDVEVLATYTTPCDDFWVADLPLDTLPPGTFSEWESLYDIRLRPTFLEDQPCILSGRYGKGRYVLSYTHLETPDSPTANRWLLHIIRTLGGIEPPLQRVPAWDLENQQAAWLDPDLLHARGIFDDIVTIGRNHCLFFKRNAWLIGWRAGIPGANLNNLYAAVVTAVSNPPTAECTAYWQEQRQPFMRKLALFHEGVKGYLLAERLAMTLSKTFPETVSRESLRNQRAALFGPPMDSGGLYQELLDTLDELLYRQLPHGL	not soluble
MGSDKIHHHHHHMVSRYLEHLEHTFSTRLFQRNTRKISLTPAGEKALLYCENILQQQQLLQELAAPEQHNGTIRFTCGLFLFELGVAECIRQFKRQHPHIQFDVYLTESTMDLIDAQVDLALRITQKVADGLIARPVCQIESVFCAHPDYLKQHSPLLHPRQLIQHECIAHHSQHQFWTLFDNEQQPQNYPLNVTFKSNDVNALYDMCLHAQGVAMLPTLLVEKDLKEKRLKALFKNFTAPELSLSVVYASRQHLPRITQEFIAFMIENLDFYLKPQN	not soluble
AHHHHHHGSLSERMLKALNDQLNRELYSAYLYFAMAAYFEDLGLEGFANWMKAQAEEEIGHALRFYNYIYDRNGRVELDEIPKPPKEWESPLKAFEAAYEHEKFISKSIYELAALAEEEKDYSTRAFLEWFINEQVEEEASVKKILDKLKFAKDSPQILFMLDKELSARAPKLPGLLMQGGE	not soluble
MGSDKIHHHHHHMVILLNPNILESSFIPERLRARDSEISKIMEVVIKPALNNITTNLIIYGDSGTGKTVTMRFLAREVRNPKIFYINAISYRSVKNVLVELLSHEGVIISERASYANIYTRLEKAIEKYDKTVILVIDEAANILRTDEEGLYYLFRSKDSFDVNISAIFIAMDDPALLLNQRIKRSYGLFNELKFKRYSKDEILEIVRDRARMSLNTTSYDDTIIDYIAEISSEFGSARVAIDILAKAAHIAEYRRSENISYDDVRAAKSMISPYVTESKLASLDKYELAALLAICGCLSHSVSTDIACVSEQLKILREQYSLDPEMDIYEILRKLEGLGIINSYVESSGKSSGVRKKISIHDVPVSVLAEKIGNLLNGMA	not soluble
MGSDKIHHHHHHMNIELADLRLFVMIAECGNLTHGAARAFLSPPAASARIKAMEQEIGQQLLVRKNKGVELTPSGDALLRHARLVLRQFDFLTDDMTNAQMGHLRIYANTTGVTEFLPAILARFLADHPGVRVDLQERLTQEIIRAVADGTADIGIISGTEGRDGLERLRFATDRLMLAVPSGHHLAHHDQVSLEQTLAFEHIALHDGSTLLDFLRRQLRRSAFDRQLRIQVRSFEAMCRLIEAGVGIGVVPESAALRHLQTMDITLLALADDWAVRDRSILVRRWADLPQSAQRLIDLLVEKEAGGAEV	not soluble
MGSDKIHHHHHHMVTLEPENKVRKILITDCADAKGLIAKITGVCFAHQLNIIKNTEFVDRIQGRFFMRTVLEGVFDDASLLKALSEVLPAQNHTKLVAADKKRIVVMVTKEAHCLGDLLMKAYYGGLDVDIAAVVGNYDSLRNLTEKFDIPFHHVCHQGLDRLEHEQAILKIVNGYQPDYVVLAKYMRVLTPEFVCAYPDRIINIHHSFLPAFIGASPYKQAWERGVKIIGATAHFVNDCLDEGPIIKQDVISVDHTFSAEEMAHNGRDVEKSVLSKALQLVLNEQVIVYGNKTVVF	not soluble
MDGISLYDDCVMLAYNKEVRRNCLPFTCGENDLDDFFLNDADLYADELLGKTYCWVTTEIPHRIVALFTLSNDSIKTRLISPNDKNRLQRNIVNPKRGRSYPAVLIGRLGVNLEYQGTSSHVGRQLMAFIKDWFRHEDNKTGCRFIVVDAYNEEKILRYYERNGFVPLYKTDVIEKQYYDIPQDEPLKTRLLYFDLKKD	not soluble
RGSHMCDAFVGTWKLVSSENFDDYMKEVGVGFATRKVAGMAKPNMIISVNGDVITIKSESTFKNTEISFILGQEFDEVTADDRKVKSTITLDGGVLVHVQKWDGKSTTIKRKREDDKLVVECVMKGVTSTRVYERA	soluble
EVKLLESGGGLAQPGGSLKLSCAASGFDFRRYWMTWVRQAPGKGLEWIGEINPDSRTINYMPSLKDKFIISRDNAKNSLYLQLSRLRSEDSALYYCVRLDFDVYNHYYVLDYWGQGTSVTVSSASTKGPSVFPLAPSSKSTSGGTAALGCLVKDYFPEPVTVSWNSGALTSGVHTFPAVLQSSGLYSLSSVVTVPSSSLGTQTYICNVNHKPSNTKVDKKVEPKSCD	soluble
MGSDKIHHHHHHMLILRARWWTNMCLICQRIDLIKKEENPYFVKELETGYLVVGDHQYFEGYSLFLAKEHVSELHHLKKETRLRFLEEMSLVQEAVAKAFAAEKMNIELLGNGDAHLHWHLFPRRTGDMNGHGLKGRGPVWWVPFEEMTAETCQAKPDEIKRLVKRLSSEVDKLLEIKE	not soluble
MNKKIGITLGDPAGIGPELILKISKHFKEKFTYVIYGEEKTLLEASKLTGIKLNYKKIEKVEEAKERGVYLIDLNVLKVPVVEPSVSSGKAAVAYLARAVADAIRGNIHGILTMPINKFWAKKAGFQYEGQTEFLAKASGTKDYAMMMYSEKLKVVLLTTHIPLKDVPNYVKKEEILKKVRLIRKEFLEKFKFEPLIKVLGLNPHAGEMGELGREEIEEIIPAVEEAKKEGIKVVGPLVPDVAFINPSEEDVFLCMYHDQGLIPFKMLAFDEGVNFTLGLPFIRTSPDHGTAYDIAWKNKARESSSLHALRLIEDLLDKI	soluble
MTELEAAMGMIIDVFSRYSGSEGSTQTLTKGELKVLMEKELPGFLQSGKDKDAVDKLLKDLDANGDAQVDFSEFIVFVAAITSASHKYFEKTGLK	soluble
NLNMAVSVTPIRDTKWLTLEVCREFQRGTCSRPDTECKFAHPSKSCQVENGRVIACFDSLKGRCSRENCKYLHPPPHLKTQLEINGRNNLIQQKNMAMLAQQMQLANAMMPGAPLQPVPMFSVAPSLATNASAAAFNPYLGPVSPSLVPAEILPTAPMLVTGNPGVPVPAAAAAAAQKLMRTDRLEVCREYQRGNCNRGENDCRFAHPADSTMIDTNDNTVTVCMDYIKGRCSREKCKYFHPPAHLQAKIKAAQYQVNQAAAAQAAATAAAMGIPQAVLPPLPKRPALEKTNGATAVFNTGIFQYQQALANMQLQQHTAFLPPVPMVHGATPATVSAATTSATSVPFAATATANQIPIISAEHLTSHKYVTQM	soluble
MGSDKIHHHHHHMEGHIVITGATGVIGSEVARRLIKSGREVVVFARSPQSAAAKVPGAADYVRWDSDMAPDGWSSSIDGAYAVIHLAGRPLLETRWTEEHKVACYDSRIKGTRALVAAMASASVKPKVFVSSSAIGYYGSFDRCEETDPLTEKAAPGKDFLAKICFDWEKEARPAETLGTRVVLLRTGIVLSTKGGMLQKMMIPFSYFVGGPVGSGDQCLSWIHLDDEVSIILQALDNADWSGPVNAVAPEPVSMKAFADSLGLVMHRPSLFPVPKLAVQILLGEGADYAVKGQKVSPEFLKERDFHFAWPSLNEALADLVSRGI	not soluble
SANQNFNNSETLGHQGSHVVTLQLRIDGMHCKSCVLNIEENIGQLLGVQSIQVSLENKTAQVKYDPSCTSPVALQRAIEALPPGNFKVSLPDGAEGSGTDHRSSSSHSPGSPPRNQVQGTCSTTLIAIAGMTCASCVHSIEGMISQLEGVQQISVSLAEGTATVLYNPAVISPEELRAAIEDMGFEASVVSESCSTNPLGNH	soluble
MDAKVAFSPHSDANGRLDEIGADIDTAQSSVLFSLAFLGQMTRGAIGPALGRALERPEVHVMGIADAEVRAGNLGLNVLTPDNRRRVVRAAALTGNVPPPFLTEPSGLAGVDGNQRGTRMHHKFVVLDFDKPTARVYLGSYNFSNPADDENGENLVVVRDRTVATSYMIEALRMYDHYVFRVASEASDGPARPLEHHHHHH	not soluble
MSLRLPPPDARPIRVVCISDTHTLELADMPDGDLLIHAGDLCNDGSAKEIQAAVDWLRKLPHPQKVVICGNHDSYFDIRSRRFEDRDQSLATVSSSTASLRSVDDFDFPHCIDWGDIHYLQHSSVTVTFPPLPQTPSSSSALLASRPRSLTIYGAPQIPAIVPFGPEHAFAYPAHHDAWSGTIPPNTDIMVTHTPPQSHLDLSPVFSTGCPFLLSEAWRIRPALHVFGHVHAAYGREPVYWDEAQKAWERICSSRREGHHHHHH	not soluble

Reference: the DeepSol protein solubility set
